Source: the supplement of paper PMC10567573

B1: KLHL14 (parent)
chain: WLYCYDPVMDVWARKQDMNTKRAI

Variants of: B1
Assay: protein stability index of a GFP-peptide fusion (GPS, HEK-293T) (PSI 1-6); higher = more stable
Settings: c terminus: a fixed tail appended
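Also: lentivirally expressed fusions sorted by FACS into six bins by GFP to DsRed ratio, PSI derived from sequencing read proportions per bin multiplied by bin number.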

Going from WLSCYDPVMDVWARKQDMNTKRAI [Y3S] to WLGCYDPVMDVWARKQDMNTKRAI [Y3G], the protein stability index rises from 1.77 to 2.01.

Compared with WLTCYDPVMDVWARKQDMNTKRAI [Y3T], WLWCYDPVMDVWARKQDMNTKRAI [Y3W] is higher in protein stability index: 2.36 for the first, 2.42 for the second.

Compared with WLVCYDPVMDVWARKQDMNTKRAI [Y3V], WLPCYDPVMDVWARKQDMNTKRAI [Y3P] is lower in protein stability index: 2.86 for the first, 2.7 for the second.

First: WLNCYDPVMDVWARKQDMNTKRAI [Y3N]
Second: WLFCYDPVMDVWARKQDMNTKRAI [Y3F]
The protein stability index of the first is higher: 2.12 for the first, 1.65 for the second.

Compared with WLICYDPVMDVWARKQDMNTKRAI [Y3I], WLCCYDPVMDVWARKQDMNTKRAI [Y3C] is higher in protein stability index: 2.06 for the first, 2.64 for the second.

Compared with WLMCYDPVMDVWARKQDMNTKRAI [Y3M], WLHCYDPVMDVWARKQDMNTKRAI [Y3H] is higher in protein stability index: 1.96 for the first, 2.22 for the second.

Going from WLACYDPVMDVWARKQDMNTKRAI [Y3A] to WLKCYDPVMDVWARKQDMNTKRAI [Y3K], the protein stability index rises from 2.02 to 2.09.

Compared with WLDCYDPVMDVWARKQDMNTKRAI [Y3D], WLECYDPVMDVWARKQDMNTKRAI [Y3E] is lower in protein stability index: 2.44 for the first, 2.33 for the second.

Going from WLQCYDPVMDVWARKQDMNTKRAI [Y3Q] to WLLCYDPVMDVWARKQDMNTKRAI [Y3L], the protein stability index rises from 1.97 to 2.15.

Compared with WLRCYDPVMDVWARKQDMNTKRAI [Y3R], WLYMYDPVMDVWARKQDMNTKRAI [C4M] is higher in protein stability index: 1.25 for the first, 1.89 for the second.

Going from WLYVYDPVMDVWARKQDMNTKRAI [C4V] to WLYAYDPVMDVWARKQDMNTKRAI [C4A], the protein stability index rises from 2.08 to 2.34.

Compared with WLYDYDPVMDVWARKQDMNTKRAI [C4D], WLYPYDPVMDVWARKQDMNTKRAI [C4P] is higher in protein stability index: 2.06 for the first, 2.51 for the second.

First: WLYKYDPVMDVWARKQDMNTKRAI [C4K]
Second: WLYQYDPVMDVWARKQDMNTKRAI [C4Q]
The protein stability index of the first is lower: 2.04 for the first, 2.31 for the second.

First: WLYHYDPVMDVWARKQDMNTKRAI [C4H]
Second: WLYNYDPVMDVWARKQDMNTKRAI [C4N]
The protein stability index of the first is higher: 2.6 for the first, 2.5 for the second.

First: WLYIYDPVMDVWARKQDMNTKRAI [C4I]
Second: WLYEYDPVMDVWARKQDMNTKRAI [C4E]
The protein stability index of the first is lower: 1.96 for the first, 2.41 for the second.

Going from WLYTYDPVMDVWARKQDMNTKRAI [C4T] to WLYYYDPVMDVWARKQDMNTKRAI [C4Y], the protein stability index falls from 2.84 to 2.13.

Going from WLYSYDPVMDVWARKQDMNTKRAI [C4S] to WLYRYDPVMDVWARKQDMNTKRAI [C4R], the protein stability index falls from 2.14 to 1.63.

Going from WLYGYDPVMDVWARKQDMNTKRAI [C4G] to WLYWYDPVMDVWARKQDMNTKRAI [C4W], the protein stability index falls from 2.58 to 2.35.

Going from WLYLYDPVMDVWARKQDMNTKRAI [C4L] to WLYFYDPVMDVWARKQDMNTKRAI [C4F], the protein stability index rises from 1.61 to 1.94.

First: WLYCDDPVMDVWARKQDMNTKRAI [Y5D]
Second: WLYCTDPVMDVWARKQDMNTKRAI [Y5T]
The protein stability index of the first is higher: 2.61 for the first, 1.83 for the second.

First: WLYCRDPVMDVWARKQDMNTKRAI [Y5R]
Second: WLYCLDPVMDVWARKQDMNTKRAI [Y5L]
The protein stability index of the first is higher: 2.26 for the first, 2.24 for the second.

First: WLYCADPVMDVWARKQDMNTKRAI [Y5A]
Second: WLYCSDPVMDVWARKQDMNTKRAI [Y5S]
The protein stability index of the first is lower: 1.92 for the first, 2.46 for the second.

First: WLYCNDPVMDVWARKQDMNTKRAI [Y5N]
Second: WLYCCDPVMDVWARKQDMNTKRAI [Y5C]
The protein stability index of the first is lower: 2.08 for the first, 2.25 for the second.

Compared with WLYCQDPVMDVWARKQDMNTKRAI [Y5Q], WLYCKDPVMDVWARKQDMNTKRAI [Y5K] is higher in protein stability index: 1.6 for the first, 2.46 for the second.

First: WLYCFDPVMDVWARKQDMNTKRAI [Y5F]
Second: WLYCVDPVMDVWARKQDMNTKRAI [Y5V]
The protein stability index of the first is higher: 2.31 for the first, 1.98 for the second.

Compared with WLYCWDPVMDVWARKQDMNTKRAI [Y5W], WLYCMDPVMDVWARKQDMNTKRAI [Y5M] is higher in protein stability index: 1.44 for the first, 1.92 for the second.

Compared with WLYCPDPVMDVWARKQDMNTKRAI [Y5P], WLYCHDPVMDVWARKQDMNTKRAI [Y5H] is lower in protein stability index: 2.9 for the first, 1.91 for the second.

Compared with WLYCIDPVMDVWARKQDMNTKRAI [Y5I], WLYCEDPVMDVWARKQDMNTKRAI [Y5E] is higher in protein stability index: 1.93 for the first, 2.23 for the second.

Going from WLYCGDPVMDVWARKQDMNTKRAI [Y5G] to WLYCYGPVMDVWARKQDMNTKRAI [D6G], the protein stability index rises from 2.43 to 2.9.

Compared with WLYCYRPVMDVWARKQDMNTKRAI [D6R], WLYCYHPVMDVWARKQDMNTKRAI [D6H] is higher in protein stability index: 1.4 for the first, 2.6 for the second.

Going from WLYCYKPVMDVWARKQDMNTKRAI [D6K] to WLYCYVPVMDVWARKQDMNTKRAI [D6V], the protein stability index rises from 2.11 to 2.23.

Going from WLYCYFPVMDVWARKQDMNTKRAI [D6F] to WLYCYYPVMDVWARKQDMNTKRAI [D6Y], the protein stability index falls from 2.99 to 2.54.

First: WLYCYQPVMDVWARKQDMNTKRAI [D6Q]
Second: WLYCYMPVMDVWARKQDMNTKRAI [D6M]
The protein stability index of the first is lower: 2.29 for the first, 2.33 for the second.

First: WLYCYSPVMDVWARKQDMNTKRAI [D6S]
Second: WLYCYNPVMDVWARKQDMNTKRAI [D6N]
The protein stability index of the first is lower: 1.7 for the first, 1.78 for the second.

Compared with WLYCYPPVMDVWARKQDMNTKRAI [D6P], WLYCYTPVMDVWARKQDMNTKRAI [D6T] is higher in protein stability index: 1.84 for the first, 2.47 for the second.

First: WLYCYCPVMDVWARKQDMNTKRAI [D6C]
Second: WLYCYWPVMDVWARKQDMNTKRAI [D6W]
The protein stability index of the first is lower: 2.14 for the first, 3.19 for the second.

Compared with WLYCYEPVMDVWARKQDMNTKRAI [D6E], WLYCYIPVMDVWARKQDMNTKRAI [D6I] is higher in protein stability index: 1.74 for the first, 1.83 for the second.

Going from WLYCYAPVMDVWARKQDMNTKRAI [D6A] to WMYCYDPVMDVWARKQDMNTKRAI [L2M], the protein stability index falls from 3.01 to 1.9.

Going from WNYCYDPVMDVWARKQDMNTKRAI [L2N] to WAYCYDPVMDVWARKQDMNTKRAI [L2A], the protein stability index rises from 2.19 to 2.24.

First: WKYCYDPVMDVWARKQDMNTKRAI [L2K]
Second: WRYCYDPVMDVWARKQDMNTKRAI [L2R]
The protein stability index of the first is higher: 2.29 for the first, 2.06 for the second.

Compared with WYYCYDPVMDVWARKQDMNTKRAI [L2Y], WVYCYDPVMDVWARKQDMNTKRAI [L2V] is lower in protein stability index: 2.52 for the first, 2.16 for the second.

Going from WGYCYDPVMDVWARKQDMNTKRAI [L2G] to WPYCYDPVMDVWARKQDMNTKRAI [L2P], the protein stability index falls from 2.29 to 2.13.

First: WDYCYDPVMDVWARKQDMNTKRAI [L2D]
Second: WCYCYDPVMDVWARKQDMNTKRAI [L2C]
The protein stability index of the first is higher: 2.52 for the first, 2.18 for the second.

Going from WEYCYDPVMDVWARKQDMNTKRAI [L2E] to WTYCYDPVMDVWARKQDMNTKRAI [L2T], the protein stability index falls from 2.61 to 2.11.

Compared with WHYCYDPVMDVWARKQDMNTKRAI [L2H], WQYCYDPVMDVWARKQDMNTKRAI [L2Q] is higher in protein stability index: 2.35 for the first, 2.55 for the second.

First: WIYCYDPVMDVWARKQDMNTKRAI [L2I]
Second: WFYCYDPVMDVWARKQDMNTKRAI [L2F]
The protein stability index of the first is higher: 1.84 for the first, 1.45 for the second.

Going from WWYCYDPVMDVWARKQDMNTKRAI [L2W] to WSYCYDPVMDVWARKQDMNTKRAI [L2S], the protein stability index rises from 1.56 to 2.39.
